Assay results from the supplement of paper PMC11246515.
± gives the standard deviation of the averaged measurements.

Assay: total protein half-life in vivo (active degradation + dilution); higher = more stable protein
[1] = E. coli NCM3722 delta-clpP delta-lon delta-hslV, growth: N-lim chemostat, doubling time 6 h
[2] = E. coli NCM3722 delta-hslV, growth: N-lim chemostat, doubling time 6 h
[3] = wild type E. coli NCM3722, growth: N-lim chemostat, doubling time 6 h
[4] = wild type E. coli NCM3722, growth: N-lim chemostat, doubling time 12 h
[5] = wild type E. coli NCM3722, growth: C-lim chemostat, doubling time 3 h
[6] = wild type E. coli NCM3722, growth: C-lim chemostat, doubling time 6 h
[7] = wild type E. coli NCM3722, growth: C-lim chemostat, doubling time 12 h
[8] = wild type E. coli NCM3722, growth: P-lim chemostat, doubling time 12 h
[9] = wild type E. coli NCM3722, growth: P-lim chemostat, doubling time 6 h
[10] = E. coli NCM3722 delta-clpP, growth: N-lim chemostat, doubling time 6 h
[11] = E. coli NCM3722 delta-lon, growth: N-lim chemostat, doubling time 6 h
[12] = E. coli NCM3722 delta-smpB, growth: N-lim chemostat, doubling time 6 h

Row | Sequence | total protein half-life in vivo [1] [h] | total protein half-life in vivo [2] [h] | total protein half-life in vivo [3] [h] | total protein half-life in vivo [4] [h] | total protein half-life in vivo [5] [h] | total protein half-life in vivo [6] [h] | total protein half-life in vivo [7] [h] | total protein half-life in vivo [8] [h] | total protein half-life in vivo [9] [h] | total protein half-life in vivo [10] [h] | total protein half-life in vivo [11] [h] | total protein half-life in vivo [12] [h]
1 | MTFWSILRQRCWGLVLVVAGVCVITFIISHLIPGDPARLLAGDRASDAIVENIRQQLGLDQPLYVQFYRYVSDLFHGDLGTSIRTGRPVLEELRIFFPATLELAFGALLLALLIGIPLGILSAVWRNRWLDHLVRIMAITGISTPAFWLGLGVIVLFYGHLQILPGGGRLDDWLDPPTHVTGFYLLDALLEGNGEVFFNALQHLILPALTLAFVHLGIVARQIRSAMLEQLSEDYIRTARASGLPGWYIVLCYALPNALIPSITVLGLALGDLLYGAVLTETVFAWPGMGAWVVTSIQALDFPAVMGFAVVVSFAYVLVNLVVDLLYLWIDPRIGRGGGE | > 8 | 5.53 | 5.15 | 7.28 |  |  |  |  |  |  |  | 
2 | MTHLPHWWQNGVIYQIYPKSFQDTTGSGTGDLRGVIQHLDYLHKLGVDAIWLTPFYVSPQVDNGYDVANYTAIDPTYGTLDDFDELVTQAKSRGIRIILDMVFNHTSTQHAWFREALNKESPYRQFYIWRDGEPETPPNNWRSKFGGSAWRWHAESEQYYLHLFAPEQADLNWENPAVRAELKKVCEFWADRGVDGLRLDVVNLISKDPRFPEDLDGDGRRFYTDGPRAHEFLHEMNRDVFTPRGLMTVGEMSSTSLEHCQRYAALTGSELSMTFNFHHLKVDYPGGEKWTLAKPDFVALKTLFRHWQQGMHNVAWNALFWCNHDQPRIVSRFGDEGEYRVPAAKMLAMVLHGMQGTPYIYQGEEIGMTNPHFTRITDYRDVESLNMFAELRNDGRDADELLAILASKSRDNSRTPMQWSNGDNAGFTAGEPWIGLGDNYQQINVEAALADDSSVFYTYQKLIALRKQEAILTWGNYQDLLPNSPVLWCYRREWKGQTLLVIANLSREIQPWQAGQMRGNWQLVMHNYEEASPQPCAMNLRPFEAVWWLQK |  |  |  |  | 2.39 ± 0.28 | 1.98 ± 0.55 | 2.82 ± 0.88 | 5.64 |  |  |  | 
3 | MTHQLRSRDIIALGFMTFALFVGAGNIIFPPMVGLQAGEHVWTAAFGFLITAVGLPVLTVVALAKVGGGVDSLSTPIGKVAGVLLATVCYLAVGPLFATPRTATVSFEVGIAPLTGDSALPLFIYSLVYFAIVILVSLYPGKLLDTVGNFLAPLKIIALVILSVAAIVWPAGSISTATEAYQNAAFSNGFVNGYLTMDTLGAMVFGIVIVNAARSRGVTEARLLTRYTVWAGLMAGVGLTLLYLALFRLGSDSASLVDQSANGAAILHAYVQHTFGGGGSFLLAALIFIACLVTAVGLTCACAEFFAQYVPLSYRTLVFILGGFSMVVSNLGLSQLIQISVPVLTAIYPPCIALVVLSFTRSWWHNSSRVIAPPMFISLLFGILDGIKASAFSDILPSWAQRLPLAEQGLAWLMPTVVMVVLAIIWDRAAGRQVTSSAH [P0AD99] |  |  |  |  |  |  |  | 1.98 ± 0.53 | 0.949 |  |  | 
4 | MTIALELQQLKKTYPGGVQALRGIDLQVEAGDFYALLGPNGAGKSTTIGIISSLVNKTSGRVSVFGYDLEKDVVNAKRQLGLVPQEFNFNPFETVQQIVVNQAGYYGVERKEAYIRSEKYLKQLDLWGKRNERARMLSGGMKRRLMIARALMHEPKLLILDEPTAGVDIELRRSMWGFLKDLNDKGTTIILTTHYLEEAEMLCRNIGIIQHGELVENTSMKALLAKLKSETFILDLAPKSPLPKLDGYQYRLVDTATLEVEVLREQGINSVFTQLSEQGIQVLSMRNKANRLEELFVSLVNEKQGDRA | 6.97 ± 0.91 | 6.1 ± 1 | 6.14 ± 0.38 | 12.1 ± 0.42 | 3.09 ± 0.16 | 6.21 ± 0.28 | 11.6 ± 1.9 | 12.7 ± 0.8 | 6.24 ± 0.29 | 6.29 ± 0.4 | 6.83 ± 0.17 | 6.4 ± 0.21
5 | MTIKVGINGFGRIGRIVFRAAQKRSDIEIVAINDLLDADYMAYMLKYDSTHGRFDGTVEVKDGHLIVNGKKIRVTAERDPANLKWDEVGVDVVAEATGLFLTDETARKHITAGAKKVVMTGPSKDNTPMFVKGANFDKYAGQDIVSNASCTTNCLAPLAKVINDNFGIIEGLMTTVHATTATQKTVDGPSHKDWRGGRGASQNIIPSSTGAAKAVGKVLPELNGKLTGMAFRVPTPNVSVVDLTVRLEKAATYEQIKAAVKAAAEGEMKGVLGYTEDDVVSTDFNGEVCTSVFDAKAGIALNDNFVKLVSWYDNETGYSNKVLDLIAHISK [P0A9B2] | 6.03 ± 0.4 | 5.447 ± 0.054 | 5.69 ± 0.16 | 9.73 ± 0.3 | 3.35 ± 0.1 | 6.201 ± 0.014 | 12.1 ± 0.39 | 12.6 ± 0.74 | 6.302 ± 0.044 | 5.43 ± 0.34 | 5.382 ± 0.019 | 5.22 ± 0.19
6 | MTINDSAISEQGMCEEEQVARIAWFYYHDGLTQSEISDRLGLTRLKVSRLLEKGHQSGIIRVQINSRFEGCLEYETQLRRQFSLQHVRVIPGLADADVGGRLGIGAAHMLMSLLQPQQMLAIGFGEATMNTLQRLSGFISSQQIRLVTLSGGVGSYMTGIGQLNAACSVNIIPAPLRASSADIARTLKNENCVKDVLLAAQAADVAIVGIGAVSQQDDATIIRSGYISQGEQLMIGRKGAVGDILGYFFDAKGDVVTNIKIHNELIGLPLSALKTIPVRVGVAGGENKAEAIAAAMKGGYINALVTDQDTAAAILRS | 5.64 ± 1.1 | 4.76 ± 0.47 | 4.64 ± 0.19 | 8.2 ± 0.58 | 2.88 ± 0.2 | 4.551 ± 0.016 | 7.78 |  | 5.08 | 5.69 ± 0.67 | 4.58 ± 0.45 | 4.6 ± 0.058
7 | MTIRSYKNLNLVRANIETESRQFIENKNYSIQSIGPMPGSRAGLRVVFTRPGVNLATVDIFYNGDGSTTIQYLTGANRSLGQELADHLFETINPAEFEQVNMVLQGFVETSVLPVLELSADESHIEFREHSRNAHTVVWKIISTSYQDELTVSLHITTGKLQIQGRPLSCYRVFTFNLAALLDLQGLEKVLIRQEDGKANIVQQEVARTYLQTVMADAYPHLHVTAEKLLVSGLCVKLAAPDLPDYCMLLYPELRTIEGVLKSKMSGLGMPVQQPAGFGTYFDKPAAHYILKPQFAATLRPEQINIISTAYTFFNVERHSLFHMETVVDASRMISDMARLMGKATRAWGIIKDLYIV | 5.71 | 1.859 ± 0.0024 | 1.41 | 4.02 ± 2.5 | 1.22 |  | 3.37 | 3.31 ± 1.4 | 1.17 |  | 1.2 | 0.954
